Reference: PMC4874776

Assays:
[1] = biological target: glycosylated FG domain of Nup98 from Xenopus tropicalis (Nup98-glyco), amino acids 1 to 485, with an N-terminal His14-TEV tag (X. tropicalis); test: spectroscopic ellipsometry; NTF2 and NTF2 W7A mutant sequentially exposed to FG domain films (5-13 pmol/cm^2), equilibrium bound amounts by SE, two to four measurements per FG domain type; native NTF2 on a reg-SSSG film (8.3 pmol/cm^2) as control
[2] = biological target: reg-FSFG, an artificially designed regular FSFG domain with 16 repetitions of the sequence … and an N-terminal His14-TEV tag; test: as above
[3] = biological target: glycosylated FG domain of Nup98 from Xenopus tropicalis (Nup98-glyco), amino acids 1 to 485, with an N-terminal His14-TEV tag (X. tropicalis); test: spectroscopic ellipsometry + QCM-D; FG domain end-grafted through its His tag (4-11 pmol/cm^2) on His tag capturing QCM-D sensors (NTF2 with Nsp1) or on Ni2+-NTA supported lipid bilayers (Nup98-glyco, reg-FSFG, Impβ with Nsp1); NTR titrated in solution from 0.0025 to 10 uM, equilibrium bound amounts by SE; 10 mM Hepes pH 7.4, 150 mM NaCl, 23 °C; linear fit at cNTR <= 0.05 uM, Hill equation at 0.05-10 uM
[4] = biological target: reg-FSFG, an artificially designed regular FSFG domain with 16 repetitions of the sequence … and an N-terminal His14-TEV tag; test: as above

Row | reduction of the equilibrium bound amount against native NTF2 [1] [%] | reduction of the equilibrium bound amount against native NTF2 [2] [%] | FG motifs in the film per bound NTR at cNTR = 10 uM (FG motifs per bound NTF2 dimer) [3] | FG motifs in the film per bound NTR at cNTR = 10 uM (FG motifs per bound NTF2 dimer) [4] | Substance
1 | > 80 | > 80 | – | – | W7A mutant of NTF2 (from UniProt P61970 1-127) (receptor)
2 | – | – | > 10 | > 10 | nuclear transport factor 2 from Homo sapiens (NTF2) (from UniProt P61970 1-127) (receptor)
